This series is described as follows: label from the status in PepcDB records.
For the sequence “MAISVFDLFKIGIGPSSSHTVGPMRAAALFTAALRQRQALSAVRRLEVRLYGSLSATGVGHGTDRAVIMGLMGEWPDRIDPTQIAPRMAALLDSGLLQLDGRVAVPFDWVRDMRLLDENLPYHPNAMTLVAYGEQGELHQETYYSVGGGFVVDAAQAASGQLDQDHTVLPYDFSSAEELLLLCKRHNLRVSELMLANERIWRSETDIREGLRRIWQAMRDCVDNGLRNEGILPGGLNVQRRAARLHRNLQEIGKPNVIGSTLSAMEWVNLFALAVNEENAAGGRMVTAPTNGAAGIIPAVLHYYMKFNPDAQDRDVVDYLLAAAAVGILCKKNASISGAEVGCQGEVGSACAMAAAGLAEVLGATPAQVENAAEIGLEHNLGLTCDPVGGLVQVPCIERNAIAAVKAINAAQMALRGDGQHFISLDKVIRTMRDTGADMHDKYKETSRGGLAVNAIE”, the protein production entry is “failed”.
Regarding “MAITVKGLTNKLTRTQRRIAVVEFIFSLLFFLPKEAEVIQADFLEYDTKERQLNEWQKLIVKAFSENIFSFQKKIEEQQLKNQLEIQTKYNKISGKKIDLLTTAVVLCALSEQKAHNTDKPLLISEALLIMDHYSQGAEKKQTHALLDKLL”, the protein production result is “not failed”.
For the sequence “MAKAIVSIFVVFFIFFLVISDVPEIEAQGNECLKEYGGDVGFGFCAPRIFPTICYTRCRENKGAKGGRCRWGQGSNVKCLCDFCDDTPQ”, the protein production result was “not failed”.
With “MAKEKTLDDLFHDTLKDIYYAERKILKALPKMARAAQAPELKAAFEKHKEQTETHVERLQQVFEMIGKRAQGKTCEAIEGIVAEGEEIMDEFKGTAALDAGLISAAQAVEHYEISRYGTLKTWAKTIGLKDAVSLLDATLKEEVVTDEDLTKLAMAQVNKKAA”, the protein production result is reported as “not failed”.
Regarding “MAKETVCVTGANGFIGSWIIRTLIEKGYTKIHASIYPGSDPTHLLQLPGSDSKIKIFEADLLDSDAISRAIDGCAGVFHVASPCTLDPPVDPEKELVEPAVKGTINVLEAAKRFNVRRVVITSSISALVPNPNWPEKVPVDESSWSDLDFCKSRQKWYPISKTLAEKAAWEFSEKHGTNIVTIHPSTCLGPLLQPNLNASCAVLLQLLQGSTETQEHHWLGVVHVKDVAKGHVMLFETPDASGRFLCTNGIYQFSEFAALVSKLFPEFAVHKFDKETQPGLTSCNDAAKRLIELGLVFTAVEDAVKETVQSLRDKGFL”, the protein production result is “failed”.
The same measure for “MAKGGFPGFGGNINNLVKQAQKMQRDMERVQEELKEKTVEASAGGGAVTVVATGRKDIKEITIKPEVVDPDDVEMLQDLILAAVNEALRKADEMVTAEISKITGGLGGIPGLF”: “not failed”; for “MAKHLGESKQKLLQLMALSCPIRLNNAPRRLAKQARSQRIKRNISKGPGMSLSRCLSGLSNLLHYRREWLRADLRAGLSVAAIQIPIAIAYAQIVGLPPQYGLYACVLPMIVYALIGSSRQLMVGPDAATCAMLGGAVAPLAMGDLQRTVELSMIVTVLVGLMLIAAGIARAGFIASFFSRPILIGYLNGIGLSLIAGQMGKVVGFKIEGDGFILGLADFLQRLGEIHGLTLAVGLASLGLLIWLPRRYPRVPAALLTVALFTLLAGLLGFDRLGVAILGHVPAGMPELSWPKTTLEESKSLLRDALGIATVSFCSAMLTARSFAARHGYAINANHEFIALGLSNLAAGASQGFAISGADSRTAVNDMAGGKSQLVGIIAALAIALILLFFTAPMAWIPQPALGAVLLMAGWGLLDVKSLKQIYRLSRFEFWLCLLTTVSVLGLGVLPGIMFAVTLAILRLLYSIYQPTDAVLGWMPGIEGQVDIRQYPQARTVPGLVVYRFDDAILFFNADYFKMRLLDTVQRESQPEVVLFDAEAVTDIDVSGIAVLREIRETLAAQGIYFAIARARGTFLAMLERSGMTREMDSQLLFGSVRSGIRTYRIWRNSMRGKQ”: “failed”; for “MAKIKKYTTKTGKIRYEFQVYAGVDSLTGRQKTTRRRGFKTRKEASIVLSRLELEIEKRGLQEDERRFFRDVCAEWMEQYRLTVRESTLEKTQRIINIHVLPAFGDMVINNITPNVCQKVVNKWFLEAKSYKKWLNYASMIFDYALRAEYVGRNPCTLVTMPRVQEQAGEKLENFWTRDELNTFFDYVTPERDVEQFTMFRVLAYSGIRKGELLALTWKDINFEDNTLRVNKTLTQGLGGKLIVQPPKSRAGRRTIDLDDSTMRYLRQWKGVQRETFLGMGFNTNNVDQLVFASNRNHFRSMNTPTKWLNKAIKATGLKHISIHGFRHTHASLLYQSGVGLKETQQRLGHSRADSSVTLDVYTHTTEQQNVAALQRFENYVEAK”: “failed”.
For the sequence “MAKKTGTKEPAPKKEKKKKERRRGKGEGTIVPHASGLFMAQISLGRDPLTGKRIRPTIYDDSEVGVQKKLRKLLIKKDLGKSVKPNKTLVGEWIRIWLDIYSKPNVGIGTWDGYDLNFTNHIENSFIARKTMSGLTTDDLQVYYNMKLLNGRKDGKGGLSTRFVKAIHTVISSAFDQAVTSGHLEKNPASGVRISNKRRPKIKIWNKEQMALYLKAIKKDRLYAAFVTDSKSGLRKSELLALRWSDIDFSTGLTKIERGWVRSPKGTLYLSDLKSENSERTLVFSTDLLKVLLEHKSRQDEEKKTAGKNYIDNGLVFCREDGSYINPSTFTRRHYDLTAKAKLPRISVHALRHSISTALLESGKVDLKQIQEMLGHKDISTTGNYYTDVLERMKQKTSELIDNLIQTEETPAQASLPAAQPSASDLAEEESVEAKNVIDFATRRNEKLFIASNGQKQKNREKAQKP”, the protein production result was “failed”.
Turning to “MAKKVKVITDPEVIKVMLEDTRRKILKLLRNKEMTISQLSEILGKTPQTIYHHIEKLKEAGLVEVKRTEMKGNLVEKYYGRTADVFYINLYLGDEELRYIARSRLKTKIDIFKRLGYQFEENELLNIMDRMSQKEFDATVRISKYIEEKEDALKDFSNEDIIHAIEWLSTAELARDEEYLELLKRLGSILKR”, the protein production entry was “not failed”.
As to “MAKLTTDSPLCRKIVRSFLNFLDSVEVAPGVDEEGLEVARECLREAFKLNSDSSRDDDDDSFKPISLVNLFTSLDNNETIPPPPPPPVAATTQDPSSSGSHVSVDTCKEPSFTGTSRDELFGQLFGALEKVRYFRNTPDGDDDPAQLEKATRIFHDCVNEMEKSGCQTFDVNSLAETLKCQGNKAMQSNLYLEAVELYSFAIALTDKNAVFYCNRAAAYTQINMCSEAIKDCLKSIEIDPNYSKAYSRLGLAYYAQGKYAEAIEKGFKKALLLDPHNESVKENIRVAEQKIREEQQRQRRSQQNTSTFYTQEPEMGGGQGIPSQFSMPVNPDLMSMFMNMAGNTFPGNHSRNNEGGAGGDGTRNGADEPEIHVGGNINIDLGGTEQMPEDLSGALRSMMQMFGGSMGGTGNNNPQDSNGAQGRPSGN”, the protein production result is given as “failed”.
For “MAKRFMCETLGTACLGLSMALAAPAAFALADIIETPARPTELAPQSLLTDATRAGDRIVSVGERGHVIYSDDQGQSWTQAEVPVAVTLTAVDFGTEQHGWVVGHSGVVLHSSDSGETWELQLDGIQAAELVIASKEDQIAELEERIEQAPEEEKADLEWALDDLFFALENTQADMEIGPVNPFLDVWFEDENHGFVVGAYGMILRTQDGGQTWEDWAPKLDNPTNFHYNSIAEVAGGALVVVGEAGQIHVSVDGGESWEKRESPYDGSLFGVTGTGRVNEVLAFGLRGNTLLSTDLGRSWTMVPNEGGATLNNAAVAEDGRITLVGNGGAVLMSTNNGESFRPYFRNDREGVMGVVPLPGTNLLLVGEGGVEITDARGRNLN” the value was “failed”; for “MAKTDARSPRTERGTIALQDASQDIWDKKYRLKSKDGTPVDASVDGTWQRVARALADVEDKASREHWYGRFLWALRNGAIPAGRIISNAGALGHKPATSTINCTVSGTIQDSMDNILEKVHEAGLTLKAGCGIGYEFSTLRPRGAYVSGAGAYTSGPLSFMDIYDKMCFTVSSAGGRRGAQMGTFDVSHPDVREFIRAKREDGRLRQFNLSLLITDQFMQAVEQDADWPLVFPVHVKERDEIDLDDPNAVVWREWPIQDDYVQRADGLVACKVYGQVRARHLWDMIMVSTYDYAEPGFILIDRVNELNNNWWCEAIRATNPCGEQPLPPYGSCLLGSVNLTCFVEQPFGDEARFDWDRFREVVRVFTRMLDNVVEINGLPLEQQRQEILGKRRHGMGFLGLGSTLTLLKLRYGSPEACVFTEEVAREMALVGWEVALELAREKGPAPILAQDYEVTAEMLRKRPEMAADGYKAGDRIRGSVLHAKYSRYMQRVAEHAPELIEALAETGARFTHHSSIAPTGTISLSLANNASNGIEPSFAHHYSRNLIREGRKTKEKVEVYSYELLAYRTLVNAQALPDSDDPARRLPDYFITADSVTPAQHMDIQAAAQKWVDSSISKTANVPTDYPFEDFKDIYRYAWHQGLKGCTTFRFNPEAFQGVLVKESDLEKTRYRFELEDGSVVEFKGNEQVEYDGEIHTAANLFDALKEGYYGK”, “failed”.
“MAKYQSMLVVIDPNQDDQPALRRAVYLHQRIGGRIKAFLPIYDFSYEMTTLLSPDERTAMRQGVIAQRTAWIREQAKFYLESGVPIDVKVVWHNRPFEAIIQEVVSEKHDLLLKMAHQHDKLEAVIFTPTDWHLLRKCPCPVWMVKDQPWPEGGKALVAVNLASEENYHNTLNEKLVRETLSLAEEVNHTEVHLIGAYPVTPINIAIELPDFDPSVYNDAIRGQHLLAMKALRQKFGIDEKFTHVEKGLPEEVIPDLAEHLQAGIVVLGTVGRTGLSAAFLGNTAEQVVDHLRCDLLVLKPEAYQTPVELDDDDDD”: the protein production result is “failed”.
“MALELSRLPELLSRIDGYKGQPVTRLAVMLNLLVFIRSSELRYARWSEIDIDNSMWTIPAEREPLPGVKFSHRGSKMRTPHLVPLSKQVVAILAELQTWAGENGLIFTGAHDPRKPISENTVNKALRVMGYDTTQEVCGHGFRAMACSALIESGLWSRDAVERQMSHQERNGVRAAYIHKAEHLEERRLMLQWWADFLDANREKGISPFEYAKINNPLKLEHHHHHH”: the protein production entry is “not failed”.
In the case of “MALFKRSSASAKGFDWMGLLWLFLFFWYFSGITQLLIQLTDTSGFTGFRQAFFMSAIWLAPMLLFPARTKVMAAVIGVVLWACSMASLGYFFVYQQEFSQSVIFIMFESNPSEAGEYLTQYFAWWMLLAFLAHSAFAFFLWTRLRPVYLPRGQALVAATAILVAIVGYPLVKQISRADTLAAGLEKFETRIEPAVPWQMVIAYRRYREQLDGMQGMLASASKIAPLTNLKDSMANQPATLVLVIGESTNRQRMSLYGYPRQTTPELDKLKDQLAIFNNVITPRPYTIEALQQVLTFADEENPDLYLKSPSLVSVMKQAGYKTYWITNQQTMTKRNTMLTTFSEQADEQVYLNNNRNQNARQYDGDVLEPFSKALADSAPRKFIVVHLLGTHMSYQYRYPPSFDKFNDRQGVPAGVRDDQLPTYNSYDNAVLYNDFVVSNLIKNYAKTDPNGFLLYLSDHGEDVFDSAGHDTLGRNEARPTAPMYTIPFMAWASPKWRETHDWSFASDLSRPYMSSQLIHTWADLAGLSFDELDHSRSLVSDSFKPRPLLIGDPYSRQSKPLIDFSLMKPKAPVEATVVQK”, the protein production result is “failed”.
For “MALINLNHTDDGYDAYDACPARSVQQETAVGAGAQILLLALLGTAIGMGTAGWLTGLAFAFASWAVLSRALHRSRLPSFGPANRVTLGRATLVGGVTALVADSFRSAPPLSLLVGLTAVALILDGVDGRVARRTGTSTPLGARFDMEVDAFLILVLSVYVALDLGPWVLLIGGMRYVFVAAARVWPWLTAPLPPSTARKTVAALQGVLLLLAGAELLPRPGNAGVVAVALGLLVWSFGRDVRWLWRRSRVPAAPVTAVRELVAQ” the value was “failed”; for “MALLKWIPARGTLPLSPKWVATTLADASPDSVPVLFLHGTLGSPGNFERPAQRLAQLGRPFFAPAYGEHGTADLDRSTAELLRYVDHLRDMGIKQVDIVGHSAGGLQGLRIAHARPGFVRKLIGLGAAFRGVPRTVRFKPVVKLITGQAVIQLTQEIPAELPDGVELVSIYSTADHIVPVASSTLGELIEITDIRHEDLPRQADVIMEALGYPAETDSPTD”, “failed”.
